Data as given in patent US20250270315A1 (ELPISCIENCE SUZHOU BIOPHARMA, published 2025).
Like-named read-outs stand apart in the source and are kept apart here.

Assays:
[1] = target: T1, human SIRPβ ECD recombinant protein (6×His tagged) (human, UniProt O00241 30-371); assay: ELISA, hSIRPβ ECD
T1 construct: extracellular domain; Bought from Sino Biological; also called hSIRPβ ECD; not shown: 6×His tag
Description: (§1) Binding activity of the purified chimeric antibodies against SIRPβ and SIRPBI was detected by ELISA assay using recombinant proteins of human SIRPβ ECD (FIGS. 3A and 3B), human SIRPBI ECD (FIGS. 3D and 3E) and FACS assay using CHOK 1 cells stably expressing human SIRPB (FIG. 3C).

[2] = target: T2, human SIRPβL ECD recombinant protein (6×His tagged) (human, UniProt Q5TFQ8 30-371); assay: ELISA, hSIRPβI ECD
T2 construct: given variously as SIRPBL, SIRPBI and SIRPβI; Bought from Biointron; also called human SIRPBL ECD; human SIRPBI ECD
T2 sequence (Q5TFQ8 30-371 limits assumed): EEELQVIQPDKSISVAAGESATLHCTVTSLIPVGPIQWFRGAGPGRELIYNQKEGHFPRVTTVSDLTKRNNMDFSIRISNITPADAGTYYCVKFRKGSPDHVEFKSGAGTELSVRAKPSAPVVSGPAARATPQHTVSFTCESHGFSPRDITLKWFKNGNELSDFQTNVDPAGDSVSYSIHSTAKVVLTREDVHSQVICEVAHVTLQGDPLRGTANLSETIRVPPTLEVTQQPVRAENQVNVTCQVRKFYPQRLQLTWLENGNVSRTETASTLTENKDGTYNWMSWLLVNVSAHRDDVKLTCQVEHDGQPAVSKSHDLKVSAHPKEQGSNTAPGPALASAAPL
Description: as §1

[3] = target: T3, human SIRPβ stably expressed on CHOK1 cells (human, UniProt O00241 30-398); assay: FACS, CHOK1-hSIRPβ cells
T3 construct: whole, on cells; also called CHOK1-human SIRPB; CHOK1-hSIRPβ
T3 sequence (O00241 30-398): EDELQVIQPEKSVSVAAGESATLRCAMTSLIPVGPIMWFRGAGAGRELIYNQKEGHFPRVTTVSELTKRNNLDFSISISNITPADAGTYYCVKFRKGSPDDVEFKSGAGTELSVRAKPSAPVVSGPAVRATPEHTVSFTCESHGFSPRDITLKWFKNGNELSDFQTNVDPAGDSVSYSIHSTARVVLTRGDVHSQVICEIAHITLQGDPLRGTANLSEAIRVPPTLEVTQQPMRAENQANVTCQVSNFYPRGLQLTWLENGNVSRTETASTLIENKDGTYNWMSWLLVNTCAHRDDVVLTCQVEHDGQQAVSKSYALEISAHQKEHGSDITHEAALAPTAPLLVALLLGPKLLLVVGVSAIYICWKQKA
Description: as §1

[4] = target: T4, full length human SIRPα v1 stably expressed on CHOK1 or 293F cells (human, UniProt P78324 31-504); assay: FACS, CHOK1-hSIRPα v1 cells
T4 construct: whole, on cells; also called CHOK1-human SIRPα v1; CHOK1-hSIRPα v1
T4 sequence (P78324 31-504): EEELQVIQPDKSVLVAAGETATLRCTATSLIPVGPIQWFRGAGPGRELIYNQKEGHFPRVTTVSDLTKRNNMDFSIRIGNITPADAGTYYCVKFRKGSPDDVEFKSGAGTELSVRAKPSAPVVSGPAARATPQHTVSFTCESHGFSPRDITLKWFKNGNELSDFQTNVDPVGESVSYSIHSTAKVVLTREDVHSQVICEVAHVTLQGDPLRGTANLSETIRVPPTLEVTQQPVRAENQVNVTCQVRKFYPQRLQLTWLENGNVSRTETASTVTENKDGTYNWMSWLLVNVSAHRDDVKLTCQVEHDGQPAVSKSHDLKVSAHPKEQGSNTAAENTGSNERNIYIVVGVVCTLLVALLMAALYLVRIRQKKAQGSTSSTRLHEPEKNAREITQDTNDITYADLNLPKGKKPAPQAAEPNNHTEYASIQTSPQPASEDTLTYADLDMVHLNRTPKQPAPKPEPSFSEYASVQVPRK

[5] = target: T5, human SIRPγ stably expressed on 293F cells (human, UniProt Q9P1W8 29-387); assay: FACS, 293F-human SIRPγ cells
T5 construct: whole, on cells
T5 sequence (Q9P1W8 29-387): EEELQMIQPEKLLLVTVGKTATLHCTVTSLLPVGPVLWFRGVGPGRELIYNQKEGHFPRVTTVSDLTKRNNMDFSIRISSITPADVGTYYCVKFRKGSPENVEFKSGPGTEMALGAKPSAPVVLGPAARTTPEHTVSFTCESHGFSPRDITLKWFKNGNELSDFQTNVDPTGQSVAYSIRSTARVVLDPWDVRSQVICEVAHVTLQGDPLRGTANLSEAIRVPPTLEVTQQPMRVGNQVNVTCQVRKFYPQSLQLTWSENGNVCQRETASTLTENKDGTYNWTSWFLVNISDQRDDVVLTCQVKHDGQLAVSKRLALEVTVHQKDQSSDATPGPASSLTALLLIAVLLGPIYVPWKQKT

[6] = target: Human SIRPα v1 (antigen of the Octet and Biacore affinity measurements) (human, UniProt P78324 31-370, limits assumed); assay: SPR (Biacore), 1:1 binding model
Human SIRPα v1 (antigen of the Octet and Biacore affinity measurements), sequence (P78324 31-370 limits assumed): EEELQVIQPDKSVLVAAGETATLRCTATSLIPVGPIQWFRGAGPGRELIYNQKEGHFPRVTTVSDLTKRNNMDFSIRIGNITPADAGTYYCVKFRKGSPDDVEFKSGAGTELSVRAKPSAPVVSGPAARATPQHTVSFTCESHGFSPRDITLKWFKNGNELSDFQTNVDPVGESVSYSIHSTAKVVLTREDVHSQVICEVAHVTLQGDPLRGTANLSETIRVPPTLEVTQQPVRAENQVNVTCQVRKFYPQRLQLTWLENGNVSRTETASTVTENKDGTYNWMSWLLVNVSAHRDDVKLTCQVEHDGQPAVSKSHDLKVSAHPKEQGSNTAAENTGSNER
Experimental: The humanized antibodies were characterized for binding affinity against human SIRPα v1, human SIRPα v2 using Surface Plasmon Resonance technology (Biacore system). The association and dissociation curves were fit with 1:1 binding model, and the Ka/Kd/KD values for each antibody were calculated.

[7] = target: T1, human SIRPβ ECD recombinant protein …; assay: ELISA, recombinant human SIRPβ ECD
Description: as §1

[8] = target: T6, human SIRPα v2 ECD recombinant protein (tag not given) (human); assay: competitive ELISA, mFc-CD47 ECD on coated SIRPα v2 ECD
T6 construct: extracellular domain; also called ELISA microplate coated human SIRPα v2 ECD
Experimental: (§2) Competitive ELISA assay was used to determine whether the purified chimeric antibodies can block CD47 and SIRPα interaction. Briefly, antibody and mFc tagged human CD47 ECD recombinant protein were co-incubated with ELISA microplate coated human SIRPα v1 ECD (FIGS. 6A and 6B) or human SIRPα v2 ECD (FIGS. 7A and 7B) recombinant protein. After washing, HRP labeled anti-mouse Fc 2nd antibody (Sigma) was added and incubated at 37° C. for 1 hour. Then, 100 μl/well of TMB solution (Biotechnology) was added. After incubation for 15 minutes at room temperature, the reaction was stopped by the addition of 50 μl of 1N HCl. OD 450 nm was read. Blocking ratio was determined by blockade of human CD47 ECD recombinant protein binding to ELISA microplate coated human SIRPα ECD recombinant protein. Other than 005, all antibodies as tested can block interaction between human CD47 and different human SIRPα variants.

[9] = target: T7, human SIRPα v1 ECD recombinant protein (tag not given) (human, UniProt P78324 31-373); assay: competitive ELISA, mFc-CD47 ECD on coated SIRPα v1 ECD
T7 construct: extracellular domain; also called biotin labeled soluble human SIRPα v1 ECD recombinant protein; ELISA microplate coated human SIRPα v1 ECD
T7 sequence (P78324 31-373): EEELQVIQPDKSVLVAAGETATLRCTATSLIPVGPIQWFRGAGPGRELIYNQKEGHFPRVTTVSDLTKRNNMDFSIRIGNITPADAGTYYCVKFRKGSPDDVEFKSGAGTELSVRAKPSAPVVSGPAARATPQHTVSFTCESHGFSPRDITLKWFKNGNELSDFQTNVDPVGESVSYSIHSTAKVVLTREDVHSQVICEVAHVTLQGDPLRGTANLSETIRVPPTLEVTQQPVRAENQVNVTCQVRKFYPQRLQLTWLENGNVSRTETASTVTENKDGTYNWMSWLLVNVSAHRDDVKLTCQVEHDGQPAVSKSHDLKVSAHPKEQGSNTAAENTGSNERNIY
Experimental: as §2
(§3) The humanized antibodies were tested for the ability to block CD47 and SIRPα interaction with competitive ELISA assay (refer to methods described in Example 4.2.3.).

[10] = target: T6, human SIRPα v2 ECD recombinant protein …; assay: competitive ELISA, mFc-CD47 ECD on coated SIRPα v2 ECD; remark: listed apart in the source
Experimental: as §2, §3

[11] = target: T3, human SIRPβ stably expressed on CHOK1 …; assay: FACS, CHOK1 cells stably expressing human SIRPβ
Description: (§4) All the humanized antibodies as tested were confirmed to retain the similar activity as the parental antibody of 025c to bind to SIRP family members.

[12] = target: T3, human SIRPβ stably expressed on CHOK1 …; assay: FACS, CHOK1-hSIRPβ cells (columns c6 and c7 read as swapped)
Description: as §4

[13] = target: T4, full length human SIRPα v1 stably …; assay: competitive FACS, mFc-CD47 ECD on CHOK1-human SIRPα v1 cells
Procedure, shortened: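 Antibody co-incubated with mFc-tagged human CD47 ECD on CHOK1 cells stably expressing human SIRPα v1 or v2; dye-labeled anti-mouse Fc secondary added, 37 °C for 1 h. Fluorescence intensity read; blocking ratio derived from inhibition of CD47 ECD binding to SIRPα-expressing cells.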

T1 sequence (O00241 30-371): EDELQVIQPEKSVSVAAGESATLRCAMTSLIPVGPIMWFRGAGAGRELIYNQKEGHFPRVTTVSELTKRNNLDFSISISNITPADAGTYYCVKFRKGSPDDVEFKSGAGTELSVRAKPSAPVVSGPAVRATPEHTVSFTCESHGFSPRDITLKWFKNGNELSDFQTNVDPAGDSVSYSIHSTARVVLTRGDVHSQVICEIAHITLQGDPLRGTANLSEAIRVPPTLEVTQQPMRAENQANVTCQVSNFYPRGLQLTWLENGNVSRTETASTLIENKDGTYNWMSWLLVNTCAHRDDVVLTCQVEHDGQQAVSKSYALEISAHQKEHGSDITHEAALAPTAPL

EC50 [1]: 0.04 nM | TOP OD450 [1]: 3.1 OD450 | EC50 [2]: 0.33 nM | TOP OD450 [2]: 2.8 OD450 | EC50 [3]: 0.38 nM | TOP MFI [3]: 10900 MFI | EC50 [4]: 1.49 nM | TOP MFI [4]: 77600 MFI | EC50 [5]: 0.11 nM | TOP MFI [5]: 3220 MFI | Kd [6]: 1.53 nM | koff [6]: 0.000924 s⁻¹ | kon [6]: 602000 M⁻¹ s⁻¹ | EC50 (read off the curve) [7]: ~0.04 nM | IC50 [8]: 2.21 nM | TOP blocking (%) [8]: 96.5% | IC50 [9]: 2.03 nM | TOP blocking (%) [9]: 97.5% | IC50 [10]: 1.86 nM | TOP blocking (%) [10]: 98.6% | EC50 (read off the curve) [11]: ~0.7 nM | EC50 [12]: 0.65 nM | TOP MFI [12]: 72300 MFI | IC50 [13]: 0.4 nM | TOP blocking (%) [13]: 97.6%
B1: 025c (antibody, V domains shown)
VH: EVQLQQSGAELVKPGASVKLSCTASGFNIKDYYMHWVKQRTEQGLEWIGRIDPEDGETKYAPKFQGKATITADTSSNTAYLQLSSLTSEDTAVYYCDRGLAYWGQGTLVTVSA
VL: QIVLTQSPAIMSASPGEKVTLTCSASSSVSSSYLYWYQQKPGSSPKLWIYSTSNLASGVPARFSGSGSGTSYSLTISSMEAEDAASYFCHQWSSYPYTFGGGTKLEIK
notes: also called chimeric antibody 025c; parental antibody of 025c
